Reference: the DeepSol protein solubility set

Experiment: soluble on expression in E. coli; label from the status in PepcDB or PDB records

Soluble on expression in E. coli, not soluble:
MGSDKIHHHHHHMIRVLLANPRGFCAGVDRAIEIVERALAMYGAPIYVRHEVVHNRFVVEDLEKKGAVFVENLEEVPEGSMLIFSAHGVSHEVRREAAARKLQIFDATCPLVTKVHVEVAKMDKEGKEIVMIGHQGHPEVEGTMGQIAKSKGTMYLVETAEDVARLQVKNESNLAYVTQTTLSVDDAARVIEALKQRFPKIIGPKKDDICYATQNRQDAVKKLVKLCDLVVVVGSPNSSNSNRLCEVARNENVEAYMVDQAEQLQESWLTNKRCIGITAGASAPEILVQQVLERLEQIAAKQSNQGVIIEELSGVLESVTFPLPKAEPVSFNKYI
MGSDKIHHHHHHMISDIPFLALLPLGAHEYHGDHLPFETDWIIAEAFAKALTVKTKKQFHIALLPVEKIGYSIEHMDVSGTQTLTFSEAIERWINIGEDCYRKGIKRFLLLNAHGGNSPLMSIVITELRKRFSMLAVATSWTRFGLPHGLMHPSQHHLDIHGGFIETSLMLYLAPEKVHMEKAKNFYNKQADMIANYQYLRAYGPHAFGWTMRDLNLQGAAGKAREATSQAGKAIFSHVLGGLRGLLDDINRFKIDAL
MGSDKIHHHHHHMISQHVRKKTREYPNRFFDSSVWNDLALRRGDIVIASYAKAGTTWLQQIVAQLIFGGEPNIDVSAISPWVDGVYPDKATKLALLEAQSQRRFMKTHLPADALVTSPLARYLYIGRDGRDIALSLYDHQCAVSQDAQARVHANGGKSGKLRVVSPPGLPRDAYVAHWLEYDGAPFWPLWENVRSWWERREDANVLLLHYADLLDDLPGQIRLIAAFLGITVAQDRWDAIVAHCRFDYMRQHAARYVPQGTGLWREDGKAFFNQGRIGRWREVLPAELNTAYSRRAEAELGRDAAQWLAHGQTQTS
MGSDKIHHHHHHMISQNSCQINESDLKNLKDWFYRYVRSFYSSDSIIQQAILLKEKHSLRVCNEILNIGKKLDLSHNALRLAEVMALFHDIGRFQQFVRYQTFVDQKSENHGELGVRILKQEKALAALDRDARELILKAISYHNRLTIPENESPICTYFSRLLRDADKLDIYYVVTTCYNSNGTERKAAVELDLPDTPEVSGEILISLIEEKMISLHQLKSLNDFKLLQMAWVYDINYLPTFRMIYERNYLRKIRDTLPGTEEIEQVYCKLISFLKAKL
MGSDKIHHHHHHMISQRALEAFRAVMTTGTVSAAAEELNVSQPAVSRLVRDLEEYTQLRLFSRHGGRIVATREAHEFNAEIERSFLGLRVIEQAAREIRQGRRGTVSVAVMPALAQTILPDVMADVRVSHPDFRLELLAMPTQSIVRQVATRQCPLGLTSPTHHANEVDVVKSGSLPYRCVMPDGHPLAAYEIIRLQDLSGMEFINYTDATATGRMLDHRFAHMTTPPVVNARAPISPVIAALVRKGLGVAILDPFTAQDHVNRGGVSRPVQIDEEFHWSFIKPYGEKLSSDLMAVISIFEDLSKNYA
MGSDKIHHHHHHMITIKEYVVPKSLDEAYELLISRKNNIILGGCGFLKLGSKNIGSAIDLKDLALDYINETDDSILIGADTSLRTLELNKVIKNYCNGVISNAVSNIVGVQFRSGARVGASVFAKYGFSDLIPSLLVVDAKVKLYKKGVMNLADFLENELEKDILIEVILPKKDAIGVFDSIRKCTGDFAVLNGAMLKEGSIYKIAIGARPRRAKIAYKASEILSLENDIEKAGEVSSEELSFGSNIRGSKEYRKDMAKALVVRMYNSIGGECDGK
MGSDKIHHHHHHMITTEAWVLYAGPEQTKKHAPVPGELRRETFQFAGLEDDEALVEPLYGSWEANLDHALSRNPVDICRQRGEEKIVLGNGALVRVVDRGRGAKHPEIGEICMVMPFGKRDQYGFAELVYAYDAPGTIGVMARRTKIRADNLVPVPKGSRHSLLQWATYGRYFTAWDNWKVASKCWRAQLPDVDPADYLVFGWGGGTTLAELQLAKREGFRVAMTASGDKRLADIEKLGITPVDRRRFPHLAYDEERYRSDPEYQAHYRASESAFAEIIGELSGGRGVAIFLDNLGGALYRATMRVIGRTGIVATVGWKTGMRLWNLRATECINRRLHIHTHAWRYDDSEAIRDFQESSDWVGPEPTEIYGFDDVPALASDYVNGKIKTYFPLYQVNPV
MGSDKIHHHHHHMITVVGGTFSKLHKGHKALLEKAIETGNEIVIGLTSDEYVKRNKVYPAIPYKERYRNLYNYMVKKTNKFRIRPIDDRNGNAPYERDYEIIVVSPETYQRSLKINEIRIQNGLPPLKIIRVPYVLAEDLFPISSTRIINGEIDGNGRRLKPVKVAIATNNSAKLKATNDFFHKLMKNFDVIQNTDYKLETQQPFGEVTMNMATKRAMQSLGDNDYAIGIESGIVYERFSRKYFDFHYCVVIDRFGNVTRGSSSGFEVPDRIIDLIKRDMSFSQAYGKVIDTNGIDDSTGIVGKISNGRVRRYDLIMECIRNAFIPRFDPDFYDTTYTPP
MGSDKIHHHHHHMIVDNDLISIQEARILAENAGRAQRVLATFSQEQLDEIVEAVAEAVGAQAQALADMAYEETDYGNPHDKAVKNRFVCTQVREQLRGMRCVGVIGRDEHARTMDIGVPVGVIAALCPATSPVSTTICKTLIAVKSGNAVVFSPHPRAARSIAAALDIMIDAARAHGLPEGCLSYMSTVTKSGTAELMNHPATSLVMLSGVPGMIGLARCSGKPVIYGGTGNGPAFVERSADIRRAVADIMLSKTFDNGIAPSAEQSIVVDSCIEREVRHALQECGAYFMTDEESLRLAELLFCADGRHKAGMVGVSAPVLARRAGISVPDNVRLLVAERKYVSEADPYSRELLSPVLAYYVEDDWMHACEKCIELLLHERNAHTLVIHSSNEEVILQFALKKPVGRLLVNTPATFGGMGVTTNLFPSMTLGSGSAGRGITADNVSPMNLIYIRKVGYGVRQYTGAQDAAGYGSRVCAAQGVMAPHDSDSRKMQALHRILMEAIGVMDGAAHR
MGSDKIHHHHHHMIVINMFSSANKVAGQGVGAVYTELMGLLKHDFSNEFEVNVNRYTRSDISHYHTIDPKFYLSTFSKKRGRKIGFVHFVPSTLDASLKLPRVARWTLDKYTLAFYKRMDQLVVVNPNFIPKLEAYGISRDKVTYIPNFVSQRTFHPVSTEKRQALRHANGFKPDDFVIFGAGQVQDRKGVSDFIKLAKQNPEFRFVWAGGFSFGRITEGYDHLKKAVAEAPANLDFTGIMPRETMIDYYNMADVFLLPSYEELFPMSVLEAFATGTPVMVRDLELYHQIITPYAITAVDVDDMQSRLRALADDHDLLATYATKSRQAAEVYDESRLEKVWHDFYLHQAALGKH
MGSDKIHHHHHHMIYLDQAASSFPKPKEVAEAMVAAVNEYGANPGRGGHRLATQARVTIDETRELLKTLFNAPSKKHVWFYQNATGALNQALFGFPFKEGDHVVSTALEHNSVRRPLEQLRERNGLVITYAQPDEEGIISPEKIAQACTDQTKAIVLSHGSNVTGAYLELEKIGEMAEAHGIVFIVDASQTAGVIDIDMKRDRISMLACAGHKGLLGPQGTGVLIVADDYGLTPLSYGGTGSYSELIDQPSQWPDRYESGTLNTPGIAGLKAGIEYVLDNGVAQIFAHEWALTERLLKGLGAQKVDVYGPPLPRKRLGVVSFRLSGFDSHEVALILDEHYQIAVRAGLHCAPMTHETLQTTDTGLIRVSVGPFNTEREVDQLLQAVMDIQQAFTS
MGSDKIHHHHHHMKAAIITKYKQITPMVTEVPVPTIAPTDVLVKIVAASVNPIDLKTKDGDLRLLLQYTMPLIMGSDFAGVITAVGDQVPDFKVGDAVYGRAPKDRIGTFAEFIAIDHQAIALKPANLNFEEAAAIPLVGLTSYQALHDIMNIQPGQKVFIPGGSGGIGIIAIQLAKYFGAYVATTTSAKHFDLVQSLGADKIIDYHQQDFTDVLSHYDAVLDTRGGQSLEAAFQIIKPGGQIVSIAGLPNARFGKDYGLPIWKQWLLGLATRKLSRLEQQAQATYSFLFMQPSGQQLVRLRQLIEQGVIKPVVDRIIPLTDINAALEYSHSGHTTGKIIISIQPN
MGSDKIHHHHHHMKAIGYQTAGAITAPNALENITLAEPTATGFDLLVEIKAISVNPVDTKIRASSSAPTGEYKIIGWDAVGVVKAVGEKVSLFNVGDEVWYAGDISRSGSYAEYQLVDERIVGHKPKSLTYTQAAALPLTGITAWEILFDRLALPQDGSATDARILIIGAAGGVGSIITQLAVKLTGAEVIGTASRPESAAWVHKLGANAVINHTKPLSKELANIGITDVTHVISLTQTDQHFDEIVQVLKPQGKLALIDDPKGPLDVMKLKRKSLSLHWELMFTRSLYQTEDMIAQHHLLNRLSALIDTGELQSTFGEHYGTINAQNLIKAHAQIESGKAIGKIVLEGFNQ
